Source: the DeepSol protein solubility set

assay: soluble on expression in E. coli; label from the status in PepcDB or PDB records

Sequence	soluble on expression in E. coli
MAHHHHHHMFSRHSLWVPAASHFPKFVEHFNRFLKASPHNVELQKALCYKEEETQLLIIQDPKARQPIFAMAFPFTVTSALCDGSRMGLGTFTSLVDTTTSLHVAAALLPTNDMHVSVSLQTNCVQPITAGEKVVMISRMDKFGKRLAFLSARLLRLDDVYENTVAPTAGRELEELERQLSQYQTLANGTHVKCILTGKS	not soluble
GSPALDTGTTEEDRLKIDVIDWLVFDPAQRAEALKQGNAIMRKFLASKKHEAAKEVFVKIPQDSIAEIYNQCEEQGMESPLPAEDDNAIREHLCIRAYLEAHETFNEWFKHMNSVPQKPALIPQPTFTEKVAHEHKEKKYEMDFGIWKGHLDALTADVKEKMYNVLLFVDGGWMVDVREDAKEDHERTHQMVLLRKLCLPMLCFLLHTILHSTGQYQECLQLADMVSSERHKLYLVFSKEELRKLLQKLRESSLMLLDQGLDPLGYEIQLSGRIVTD	soluble
VFILPDCNPVLKFISSARERLLIIAPYIDFRWYKDDGLLEAIKGAKESGAEVKVVLNAKYAKEEAVSTLRKEGVKVELIDNLHGKAIVSDKRLLITSANMNMHGLKLNREIGVIINNPEMADAVIKEFEGGEVTPLD	not soluble
MDDNQIINLFFQRNEDAINAVDEKYGSKLNALAANILQSREDGLECVNDMYMKAWNSIPPARPEYLFAFLATSARNIAIDMIRKNNAGKRQAKVVELTKELEECIGDGGLQTHLDKEDIGEMLSHFLETVDKNKRIIFLRRYWYSDSIKDISERMQMSESAVKVTLHRTRKELRKYLESEGLYL	not soluble
MSSKFRTEDAWIIGQRMAARLDHEAYPLHKAAFFNDTHSIVQLLRAGRSLSEKDTHGNTALHIATMLGHREAIAILLANNAPVRIKNIDGWNPLMESVSYGDRQIITEMLRKLKTQTNEKMSRGKPHLMKMFQDLGDFYMEFKWDFQSWIPLLSRILPSDVCLIYKKGNLLRMDTTLADFSERNWERGDITFLFNVDAPPGEQLVVMDNKTKVFQRGRREESEAEIDEEVDVLMSTDIVNAHMSTKTVGFKQAYSGWVFKHAREEQMGDFPVNFYSVEGLKLTTRKRREHLTSDDVKKNKSILHSLTSGHTVNDDEFSVEPPTPKIATPTGRLPTTWEEYSGAAPGAPPQMGRPQIVKTNEKQFKALVGMSEEFPLSVDVLVDLLEVVAPFKHLDKLRRFCSARLPPGFPVCVEIPLLATIAAKVTFQKFQFTNDIQDKMFTIPTSYREDPTRFPDL	not soluble
MSLNKYEPLFKSLTLPNGVEVRNRFVLAPLTHTSSNDDGTISDIELPYIEKRSKDVGIAINAASNVNDVGKAFPGQPSVAHDSDIEGLKELAQVMKKNGAKAIVQIHHGGAQALPELTPDGDVVAPSAISLKSFGQQKEHDAREMTAEEIEQTIRDFGEATRRAIEAGFDGVEIHGANHYLIHQFVSPYYNRRNDVWADNYKFPVAVIDEVVKAKKAHAYDDFIIGYRLSPEEAESPGISMEITEELIHQIANKPLDYIHVSLMDVNSVTREGKYKGENRLELIHQWINGRMPLIGIGSVFTAEDALNAVENIGVEFVALGCEILLDYDFVAKIKEGREDEIINAFDPNREDQHYLTPNLWEQFNQGFYPLPRKDKEGHHHHHH	soluble
MNPFIVADAESCIGCRSCEVACVVAHHEGQFPDKPEYFTPRVKVFKGDQCATAVFCHHCEDAPCASTCPNGAIVELNNRVQVIQEKCIGCKTCMIACPFGMMTVVTETVQPASHRLADVYRRTEAQKCDLCLDQPDGPACIKTCPTQALTLVDQQYLLHQQQQKRQHMALNEHNGRLFSRAVVQAASASSNKSIRDATPVNLLQRPRAPRLEPKKIPLAERKTGFAEIYLPFTESQIHEQAERCLECGDKTICQWTCPLHNAIPKWISLAHQGRIHEAAELSHQTSSLPEVCGRVCPQDRLCEQSCTLNDHDGAVTIGQIERHITETALATGWRPDLSQVKPSGKRVAIIGAGPAGLGCADILVRNGITPVVFDRYPEIGGLLTFGIPAFKLEKSVMTRRREIFTEMGVEFCLNTEIGRDITMENLLHDFDALFLGVGTYRSMRSGLENEDAQGVYDALPFLIGNTQHLMGYTANGAHPYVSMQDQRVVVLGGGDTAMDCVRTSLRQGASRVVCAYRRDEKNMPGSKREVKNAREEGAEFMFNLQPMSIVVDESGQVTGIKMVRTEMGQADAQGRRQALPITGSEHLIPADAVIMAFGFSPHRMSWLAEHNVVLDKHGRVVAPTISGYPYQTSNPKIFAGGDIVRGADLIVTAIAEGRKAAESIAYYLNVL	not soluble
